Reference: the DeepSol protein solubility set

test: soluble on expression in E. coli; label from the status in PepcDB or PDB records

Row | Sequence | soluble on expression in E. coli
1 | MENAFKNKALYHQLVDLLQERIETCMIPHDKLPSERELTAQYGVSRTTVRLALQELENRGSIYRRHGKGTFVSDIKKEAADLAGAYSFTEQMKGLGRKPHTRILSFEKLEADKFICQHLNLSLGEAVFKLSRLRIADNEPLMVEDTYLPVKFFLSLTDQLLRSKPLYDLFSEDFKQTVRLADEELYASIASKEDAKLLMIPEGAPVLHLARQTYNMKNEIIEFTLSVARADQFHYQIRHIRNS | not soluble
2 | MSLAIPFKRINLNLILHLDALLSERSVSAAAEKVFVSQPAMSSSLKQLRELFKDPLLIPGKGEYFLSPKAKELQPQLEQVMFFIRNILQPNERFDPFQTKRSFKIALPDYVELILLPSLMAALEKLPHIVIETTIQSMADDPHLFIDENVDLAIGAINENSLSAQLKVEKLYEEEIICFASKNNPLINRPLSLEDYISNKHIAFSFNQERYSHSAEYLYKRKLVRNDMLFVKNILPAIFAVANSDAVISTAPSFLINMFARQFNLGMQPLPFNLEPTPIYLVTHSKSQYDEGVSWLAKLVSSSIKSPSEGHHHHHH | soluble
3 | MSTIHTPLTYNEINGKPFGLDYELAKQFADYLGVKLKVTVRQNISQLFDDLDNGNADLLAAGLVYNSERVKNYQPGPTYYSVSQQLVYKVGQYRPRTLGNLTAEQLTVAPGHVVVNDLQTLKETKFPELSWKVDDKKGSAELMEDVIEGKLDYTIADSVAISLFQRVHPELAVALDITDEQPVTWFSPLDGDNTLSAALLDFFNEMNEDGTLARIEEKYLGHGDDFDYVDTRTFLRAVDAVLPQLKPLFEKYAEEIDWRLLAAIAYQESHWDAQATSPTGVRGMMMLTKNTAQSLGITDRTDAEQSISGGVRYLQDMMSKVPESVPENERIWFALAAYNMGYAHMLDARALTAKTKGNPDSWADVKQRLPLLSQKPYYSKLTYGYARGHEAYAYVENIRKYQISLVGYLQEKEKQATEAAMQLAQDYPAVSPTELGKEKFPFLSFLSQSSSNYLTHSPSLLFSRKGSEEKQNLEHHHHHH | soluble
4 | MELIRNLDDANMGEVYWRLYRRYISLFIENEADDAYAWRCARALDELDDAVIERLCAASLRYRAARLERLGESAEEVAPARGVLERIEPGELIVPDPEQGDEAVIHLSLNCEWDREHGMEWIVRGGEVLYVGPFHGEDPWRDFTVKEPWNYA | not soluble
5 | MAHHHHHHMLPILLSTLEKDESATLRERAGMALELLVREAQTQRLLLGGGSSEDAPLSTLAGKQTAPTPHLAAILASLRDESDEVVVAALRVVLACHMAHNAFSVTAALVQGGLIPVLIDLIQSTNTMTQMVACCATRQLFQVKEAHVELLKLGIVATLTKAIIKAEAVALVAEAAEVASLIAEYAQGRRDAVACGTLASLLPHLHNANLTLRVAVYSAAAQITVLEAAKVQAMEVGYPEQLVGELAREDERDVLMHMLRLIYNLAEWPTARVTLRECLPRIAELLQIAEGDEGVMFALSQADRILKKKVFPV | not soluble
6 | MGHHHHHHSHMVKDIIIASFYKFIPLNDFESLREPILTKMHEIGIKGTIILAHEGVNGGFAGNREQMNVFYDYLRSDSRFADLHFKETYDNKNPFDKAKVKLRKEIVTMGVQKVDPSYNAGTYLSPEEWHQFIQDPNVILLDTRNDYEYELGTFKNAINPDIENFREFPDYVQRNLIDKKDKKIAMFCTGGIRCEKTTAYMKELGFEHVYQLHDGILNYLESIPESESLWEGKCFVFDDRVAVDQKLDRVYPQLPQDYKYEREQK | soluble
7 | MSTVTITDLARENVRNLTPYQSARRLGGNGDVWLNANEYPTAVEFQLTQQTLNRYPECQPKAVIENYAQYAGVKPEQVLVSRGADEGIELLIRAFCEPGKDAILYCPPTYGMYSVSAETIGVECRTVPTLDNWQLDLQGISDKLDGVKVVYVCSPNNPTGQLINPQDFRTLLELTRGKAIVVADEAYIEFCPQASLAGWLAEYPHLAILRTLSKAFALAGLRCGFTLANEEVINLLMKVIAPYPLSTPVADIAAQALSPQGIVAMRERVAQIIAEREYLIAALKEIPCVEQVFDSETNYILARFKASSAVFKSLWDQGIILRDQNKQPSLSGCLRITVGTREESQRVIDALRAEQV | soluble
8 | MGSDKIHHHHHHMDYKELLEVLRKDLNFKKVDLYQEKSNKTRYREIELGEKSPTIEELISFTDTLGIRLSEFLYRGDITPLAASYYGKRKIEVASLINNFPELEKQFPEIYKDRFKNLQCYTLFTLCLIISKSLNNSLYTFKNKDIRELKNFYKNREVILGADYAILSHLYMAVPEYSNELDFLTEKLFPINQSYGDIHDHAVQLCIKNAVTVFLEKKDFEKADYFLEQFDIVRKVPSFILDGTINLEMIYLKHLRNFLKKRNMEEYLKAVNIVNLFSQLGENDTYKELVKEVTEIARKENFEVPSSLNIIADTFEGVGYLKSDK | not soluble
